According to patent publication US7592168B2, “Cephalosporin C acylase mutant and method for preparing 7-ACA using same” (Sandoz AG, priority 2003, dated 2009):

How the values were obtained:
Type in all cases: biochemical
[1] = Specific activity of CPC acylase to GL-7-ACA; conditions: purified enzyme
Procedure: J. Appl. Microbiol. Biotechnol. 23: 559-564, 1995). […] After the reaction, the mixture (200 μl) of 50 mM NaOH and 20% glacial acetic acid (1:2) was added thereto to stop the reaction. 200 μl of the supernatant recovered from the reaction mixture by centrifugation was mixed with 40 μl of 0.5% (w/v) PDAB (p-dimethylaminobenzaldehyde; Sigma, USA) dissolved in a methanol and the reaction mixture was incubated at 37° C. for 10 min. After the reaction, the absorbance of reaction mixture was measured at 415 nm and quantified by comparing with a calibration curve of standard material. […] Biochem. 72: 248-254, 1976) and representing it as an active unit corresponding to 1 mg of protein. The reactivity of CPC acylase mutant to CPC was determined by the following steps of adding the same amount of protein to a reaction mixture, performing an enzyme reaction for a fixed time, measuring the amount of 7-ACA produced in the reaction mixture, and representing it as a relative value. The end-product inhibition by 7-ACA was determined by adding a protein corresponding to the same active unit to a reaction mixture, performing an enzyme reaction for a fixed time; measuring the amount of 7-ACA produced in the reaction mixture, and representing it as a relative value.
Therefore, it has been known that the Pseudomonas sp.

[2] = One-step conversion of CPC into 7-ACA (HPLC); conditions: 50 mM CPC, pH 8.5, 25° C., 1 hr, purified enzyme
Procedure: E. coli BL21(DE3) transformant containing each one of pET29-TnS5αβ and pET29-S12 plasmids of Example <3-2> was cultivated in 5 l of a LB broth containing 20 μg/ml of kanamycin and 2% lactose at 25° C., 200 rpm for 72 hr with vigorous shaking. Further, E. coli MC1061(pBCPC) containing the wild-type CPC acylase gene was also cultivated in 10 l of a LB broth containing 25 μg/ml of chloramphenicol at 25° C., 200 rpm for 48 hr with vigorous shaking. After then, the wild-type CPC acylase, TnS5αβ and S12 CPC acylase mutants were purified from each culture broth according to the same method as described in Example <2-1>, respectively. The purified protein obtained above was subjected to dialysis with 50 mM phosphate buffer solution (pH 8.5), and the diffusate obtained by dialysis was used for a CPC conversion reaction.
After CPC was dissolved in 50 mM phosphate buffer solution (pH 8.5) at a final concentration of 50 mM, the purified enzyme solution dissolved in the same buffer solution was added to the CPC solution obtained above at a final concentration of 5 unit/mg to prepare […] of the reaction mixture. The reaction mixture was stirred at 25° C. for 1 hr to induce a CPC conversion reaction. At this time, in order to prevent pH of the reaction mixture from decreasing during the conversion reaction, when pH of the reaction mixture was reached to 8.4, 0.2 N NaOH solution was automatically injected to the reaction mixture by a pH regulator to constantly maintain pH of the reaction mixture at 8.5. 100 μl of the reaction mixture was taken from at a fixed time during the conversion reaction and immediately subjected to a HPLC analysis to quantify the amount of CPC and 7-ACA in the reaction mixture. […] In addition, the flow rate of mobile phase was 0.6 ml/min, the sample (20 μl) to be injected was prepared by appropriately diluting the reaction mixture with 50 mM phosphate buffer solution (pH 8.5), and its absorbance was detected at UV 250 nm.

[3] = End-product inhibition by 7-ACA; conditions: same active unit of enzyme
Procedure: The enzyme activity of CPC acylase mutant to CPC was measured according to the method described by Park et al. with minor modifications as follows (Park, et al., Kor. J. Appl. Microbiol. Biotechnol. 23: 559-564, 1995). A substrate solution was prepared by dissolving CPC (purity 74.2%; CJ Corp., Korea) in 0.1 M Tris-HCl buffer solution (pH 8.0) at a concentration of 20 mg/ml and adjusting pH to 8 with 1 N NaOH. 20 μl of the CPC solution was mixed with 20 μl of the crude enzyme solution prepared above and the reaction mixture was incubated at 37° C. for 5 min. After the reaction, the mixture (200 μl) of 50 mM NaOH and 20% glacial acetic acid (1:2) was added thereto to stop the reaction. 200 μl of the supernatant recovered from the reaction mixture by centrifugation was mixed with 40 μl of 0.5% (w/v) PDAB (p-dimethylaminobenzaldehyde; Sigma, USA) dissolved in a methanol and the reaction mixture was incubated at 37° C. for 10 min. After the reaction, the absorbance of reaction mixture was measured at 415 nm and quantified by comparing with a calibration curve of standard material. […] Meanwhile, the specific activity of CPC acylase mutant for CPC was determined by measuring the amount of protein remaining in the enzyme solution according to the method described by Bradford (Bradford, M., Anal. Biochem. 72: 248-254, 1976) and representing it as an active unit corresponding to 1 mg of protein. […]

[4] = Optimal reaction temperature and pH to CPC; conditions: purified mutant enzyme
Procedure: Further, as a result of examining the optimal reaction temperature and pH of the wild-type CPC acylase AcyII, the optimal reaction temperature and pH to CPC were 40° C. and 9.0, respectively.

B1: Wild-type: Pseudomonas sp. SE83 derived wild-type CPC acylase (AcyII), α-subunit SEQ ID NO: 4 and β-subunit SEQ ID NO: 5, from pBCPC (protein)
alpha: TMAAKTDREALQAALPPLSGSLSIPGLSAPVRVQRDGWGIPHIKASGEADAYRALGFVHAQDRLFQMELTRRKALGRAAEWLGAEAAEADILVRRLGMEKVCRRDFEALGAEAKDMLRAYVAGVNAFLASGAPLPIEYGLLGAEPEPWEPWHSIAVMRRLGLLMGSVWFKLWRMLALPVVGAANALKLRYDDGGQDLLCIPPGVEAERLEADLAALRPAVDALLKAMGG
beta: SNNWAVAPGRTATGRPILAGDPHRVFEIPGMYAQHHLACDRFDMIGLTVPGVPGFPHFAHNGKVAYCVTHAFMDIHDLYLEQFAEDGRTARFGNEFEPVAWRRDRIAVRGGADREFDIVETRHGPVIAGDPLEGAALTLRSVQFAETDLSFDCLTRMPGASTVAQLYDATRGWGLIDHNLVAGDVAGSIGHLVRARVPSRPRENGWLPVPGWSGEHEWRGWIPHEAMPRVIDPPGGLIVTANNRVVADDHPDYLCTDCHPPYRAERIMERLVASPAFAVDDAAAIHADTLSPHVGLLRARLEALGIQGSLPAEELRQTLIAWDGRMDAGSQAASAYNAFRRALTRLVTARSGLEQAIAHPFAAVPPGVSPQGQVWWAVPTLLRNDDAGMLKGWSWDEALSEALSVATQNLTGRGWGEEHRPRFTHPLSAQFPAWAALLNPVSRPIGGDGDTVLANGLVPSAGPEATYGALSRYVFDVGNWDNSRWVVFHGASGHPASPHYADQNAPWSDCAMVPMLYSWDRIAAEAVTSQELVPA
modifications: Pseudomonas sp. SE83
specific activity to GL-7-ACA [1]: about 23.1 unit/mg protein
CPC conversion rate [2]: 60%

B2: S12: sixfold CPC acylase mutant, α-subunit SEQ ID NO: 7 and β-subunit SEQ ID NO: 8 (protein)
alpha: TMAAKTDREALQAALPPLSGSLSIPGLSAPVRVQRDGWGIPHIKASGEADAYRALGFVHAQDRLFQMELTRRKALGRAAEWLGAEAAEADILVRRLGMEKVCRRDFEALGAEAKDMLRAYAAGVNAFLASGAPLPIEYSLLGAEPEPWEPWHSIAVMRRLGLLMGSVWFKLWRMLALPVVGAANALKLRYDDGGQDLLCIPPGVEAERLEADLAALRPAVDALLKAMGG
beta: SNNWAVAPGRTATGRPILAGDPHRVFEIPGMYAQHHLACDRFDMIGLTVPGVPGFPHNAHNGKVAYCVTHAFMDTHDLYLEQFAEDGRTARFGNEFEPVAWRRDRIAVRGGADREFDIVETRHGPVIAGDPLEGAALTLRSVQFAETDLSFDCLTRMPGASTVAQLYDATRGWGLVDHNLVAGDVAGSIGHLVRARVPSRPRENGWLPVPGWSGEHEWRGWIPHEAMPRVIDPPGGLIVTANNRVVADDHPDYLCTDCHPPYRAERIMERLVASPAFAVDDAAAIHADTLSPHVGLLRARLEALGIQGSLPAEELRQTLIAWDGRMDAGSQAASAYNAFRRALTRLVTARSGLEQAIAHPFAAVPPGVSPQGQVWWAVPTLLRNDDAGMLKGWSWDEALSEALSVATQNLTGRGWGEEHRPRFTHPLSAQFPAWAALLNPVSRPIGGDGDTVLANGLVPSAGPEATYGALCRYVFDVGNWDNSRWVVFHGASGHPASPHYADQNAPWSDCAMVPMLYSWDRIAAEAVTSQELVPA
modifications: alpha-subunit of mutatnt CPC acylase S12 protein; beta-subunit of mutatnt CPC acylase S12 protein
end-product inhibition by 7-ACA (in words) [3]: significantly decreased as compared with that of the wild-type enzyme
reaction feature (e.g., optimal temperature and pH) compared with wild-type [4]: the same as the wild-type CPC acylase
7-ACA yield [2]: ≥ 90%
CPC conversion rate [2]: 98%
